Assay results from patent publication US20220048967A1 (published 2022).
Numbered stars: 1 amine (or outer) side, 2 acyl side, 3 side chain; on linkers, the order of the positions; unused ones are H or OH. Square brackets hold non-standard residues; d marks the D form. Side chains are listed from the residue outwards. Ends that are not written are not given here. * marks the point of attachment. C20 diacid = O=C(O)CCCCCCCCCCCCCCCCCCC(=O)*; αMePhe(2-F) = C[C@](N)(Cc1ccccc1F)C(=O)O; γGlu = O=C(O)[C@H](CCC(=O)[*:2])N[*:1]; αMeF = C[C@](N)(Cc1ccccc1)C(=O)O; AEEA = NCCOCCOCC(=O)O; Aib = CC(C)(N)C(=O)O

T1: human gastric inhibitory peptide receptor (GIPR) (human, UniProt P48546 22-466)
T1 sequence (looked up): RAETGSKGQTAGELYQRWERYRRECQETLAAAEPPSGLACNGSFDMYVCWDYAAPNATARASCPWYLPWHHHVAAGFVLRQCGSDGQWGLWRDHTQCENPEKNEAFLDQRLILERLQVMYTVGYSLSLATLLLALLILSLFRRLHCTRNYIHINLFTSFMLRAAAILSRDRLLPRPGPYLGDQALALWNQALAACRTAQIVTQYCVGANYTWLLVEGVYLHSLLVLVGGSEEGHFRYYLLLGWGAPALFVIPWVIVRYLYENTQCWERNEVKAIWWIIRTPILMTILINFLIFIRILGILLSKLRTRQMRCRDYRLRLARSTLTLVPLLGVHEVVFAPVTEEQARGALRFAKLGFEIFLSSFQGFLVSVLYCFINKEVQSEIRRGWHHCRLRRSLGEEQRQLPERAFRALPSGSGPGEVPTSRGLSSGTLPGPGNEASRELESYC

B1: Example 149 (peptide)
peptide: Y[Aib]EGT[αMePhe(2-F)]TSDYSIXLDEKAQ[Aib]EFIVYLIEGGPSSGAPPPS-NH2
modifications: not fully specified (residues 13, 17); printed as Y-Aib-EGT-αMeF(2F)-TSDYSI-αMeF-LDEK((2-[2-(2-Amino-ethoxy)-ethoxy]-acetyl)2-(γ-Glu)-CO-(CH2)18-CO2H)AQ-Aib-EFIVYLIEGGPSSGAPPPS-NH2
B2: Example 150 (peptide)
peptide: Y[Aib]EGT[αMePhe(2-F)]TSDYSIXLDEKAQ[Aib]EFISYLIEGGPSSGAPPPS-NH2
modifications: not fully specified (residues 13, 17); printed as Y-Aib-EGT-αMeF(2F)-TSDYSI-αMeF-LDEK((2-[2-(2-Amino-ethoxy)-ethoxy]-acetyl)2-(γ-Glu)-CO-(CH2)18-CO2H)AQ-Aib-EFISYLIEGGPSSGAPPPS-NH2
B3: Example 146 (peptide)
peptide: Y[Aib]EGT[αMePhe(2-F)]TSDYSIXLDEKAQ[Aib]EFIQYLIEGGPSSGAPPPS-NH2
modifications: not fully specified (residues 13, 17); printed as Y-Aib-EGT-αMeF(2F)-TSDYSI-αMeF-LDEK((2-[2-(2-Amino-ethoxy)-ethoxy]-acetyl)2-(γ-Glu)-CO-(CH2)18-CO2H)AQ-Aib-EFIQYLIEGGPSSGAPPPS-NH2
B4: Example 148 (peptide)
peptide: Y[Aib]EGT[αMePhe(2-F)]TSDYSIXLDEKAQ[Aib]EFIAYLIEGGPSSGAPPPS-NH2
modifications: not fully specified (residues 13, 17); printed as Y-Aib-EGT-αMeF(2F)-TSDYSI-αMeF-LDEK((2-[2-(2-Amino-ethoxy)-ethoxy]-acetyl)2-(γ-Glu)-CO-(CH2)18-CO2H)AQ-Aib-EFIAYLIEGGPSSGAPPPS-NH2
B5: Example 160 (peptide)
peptide: YXEGTXTSDXSIXLDEKAQXTFIXYLIEGGPSSGAPPPS
modifications: Y-Aib-EGT-αMeF(2F)-TSD-Aib-SI-αMeF-LDEK((2-[2-(2-Amino-ethoxy)-ethoxy]-acetyl)2-(γ-Glu)-CO-(CH2)18-CO2H)AQ-Aib-TFI-(D-Glu)-YLIEGGPSSGAPPPS-NH2
B6: Example 154 (peptide)
peptide: Y[Aib]EGT[αMePhe(2-F)]TSDHSIXLDEKAQ[Aib]EFIEYLIEGGPSSGAPPPS-NH2
modifications: not fully specified (residues 13, 17); printed as Y-Aib-EGT-αMeF(2F)-TSDHSI-αMeF-LDEK((2-[2-(2-Amino-ethoxy)-ethoxy]-acetyl)2-(γ-Glu)-CO-(CH2)18-CO2H)AQ-Aib-EFIEYLIEGGPSSGAPPPS-NH2
B7: Example 144 (peptide)
peptide: Y[Aib]EGT[αMeF]TSDYSIXLDKKAQH[Aib]FIEYLIEGGPSSGAPPPS-NH2
modifications: not fully specified (residues 13, 17); printed as Y-Aib-EGT-αMeF-TSDYSI-αMeF-LDKK((2-[2-(2-Amino-ethoxy)-ethoxy]-acetyl)2-(γ-Glu)-CO-(CH2)18-CO2H)AQH-Aib-FIEYLIEGGPSSGAPPPS-NH2
B8: Example 161 (peptide)
peptide: Y[Aib]EGT[αMePhe(2-F)]TSDHSI[αMeF]LDEK([AEEA-AEEA-γGlu-γGlu-C20 diacid])AQ[Aib]TFI[dE]YLIEGGPSSG-NH2
modifications: N-terminus assumed
SMILES: CC[C@H](C)[C@H](NC(=O)[C@H](CC(C)C)NC(=O)[C@H](Cc1ccc(O)cc1)NC(=O)[C@@H](CCC(=O)O)NC(=O)[C@@H](NC(=O)[C@H](Cc1ccccc1)NC(=O)[C@@H](NC(=O)C(C)(C)NC(=O)[C@H](CCC(N)=O)NC(=O)[C@H](C)NC(=O)[C@H](CCCCNC(=O)COCCOCCNC(=O)COCCOCCNC(=O)CC[C@H](NC(=O)CC[C@H](NC(=O)CCCCCCCCCCCCCCCCCCC(=O)O)C(=O)O)C(=O)O)NC(=O)[C@H](CCC(=O)O)NC(=O)[C@H](CC(=O)O)NC(=O)[C@H](CC(C)C)NC(=O)[C@](C)(Cc1ccccc1)NC(=O)[C@@H](NC(=O)[C@H](CO)NC(=O)[C@H](Cc1c[nH]cn1)NC(=O)[C@H](CC(=O)O)NC(=O)[C@H](CO)NC(=O)[C@@H](NC(=O)[C@](C)(Cc1ccccc1F)NC(=O)[C@@H](NC(=O)CNC(=O)[C@H](CCC(=O)O)NC(=O)C(C)(C)NC(=O)[C@@H](N)Cc1ccc(O)cc1)[C@@H](C)O)[C@@H](C)O)[C@@H](C)CC)[C@@H](C)O)[C@@H](C)CC)C(=O)N[C@@H](CCC(=O)O)C(=O)NCC(=O)NCC(=O)N1CCC[C@H]1C(=O)N[C@@H](CO)C(=O)N[C@@H](CO)C(=O)NCC(N)=O
B9: Example 145 (peptide)
peptide: Y[Aib]EGT[αMeF]TSDASIXLDKKAQ[Aib]AFIEYLIEGGPSSGAPPPS-NH2
modifications: not fully specified (residues 13, 17); printed as Y-Aib-EGT-αMeF-TSDASI-αMeF-LDKK((2-[2-(2-Amino-ethoxy)-ethoxy]-acetyl)2-(γ-Glu)-CO-(CH2)18-CO2H)AQ-Aib-AFIEYLIEGGPSSGAPPPS-NH2
B10: Example 151 (peptide)
peptide: Y[Aib]EGT[αMePhe(2-F)]TSDYSIXLDEKAQ[Aib]EFIPYLIEGGPSSGAPPPS-NH2
modifications: not fully specified (residues 13, 17); printed as Y-Aib-EGT-αMeF(2F)-TSDYSI-αMeF-LDEK((2-[2-(2-Amino-ethoxy)-ethoxy]-acetyl)2-(γ-Glu)-CO-(CH2)18-CO2H)AQ-Aib-EFIPYLIEGGPSSGAPPPS-NH2
B11: Example 159 (peptide)
peptide: Y[Aib]EGT[αMePhe(2-F)]TSD[αMeF]SIXLDEKAQ[Aib]EFIEYLIEGGPSSGAPPPS-NH2
modifications: not fully specified (residues 13, 17); printed as Y-Aib-EGT-αMeF(2F)-TSD-αMeF-SI-αMeF-LDEK((2-[2-(2-Amino-ethoxy)-ethoxy]-acetyl)2-(γ-Glu)-CO-(CH2)18-CO2H)AQ-Aib-EFIEYLIEGGPSSGAPPPS-NH2
B12: Example 153 (peptide)
peptide: Y[Aib]EGT[αMePhe(2-F)]TSDYSIXLDEKAQ[Aib]EFIHYLIEGGPSSGAPPPS-NH2
modifications: not fully specified (residues 13, 17); printed as Y-Aib-EGT-αMeF(2F)-TSDYSI-αMeF-LDEK((2-[2-(2-Amino-ethoxy)-ethoxy]-acetyl)2-(γ-Glu)-CO-(CH2)18-CO2H)AQ-Aib-EFIHYLIEGGPSSGAPPPS-NH2
B13: Example 152 (peptide)
peptide: Y[Aib]EGT[αMePhe(2-F)]TSDYSIXLDEKAQ[Aib]EFI[Aib]YLIEGGPSSGAPPPS-NH2
modifications: not fully specified (residues 13, 17); printed as Y-Aib-EGT-αMeF(2F)-TSDYSI-αMeF-LDEK((2-[2-(2-Amino-ethoxy)-ethoxy]-acetyl)2-(γ-Glu)-CO-(CH2)18-CO2H)AQ-Aib-EFI-Aib-YLIEGGPSSGAPPPS-NH2

biological target: T1, human gastric inhibitory peptide …; assay: cell-based or functional assay

Binder | hGIPR cAMP EC50 ratio | hGIPR cAMP Rel EC50 [nM]
B1 | 1.82 | 0.0711
B2 | 2.64 | 0.0511
B3 | 1.98 | 0.0583
B4 | 2.7 | 0.043
B5 | 0.00712 | 21
B6 | 5.9 | 0.0266
B7 | 3.6 | 0.0375
B8 | 0.706 | 0.254
B9 | 2.46 | 0.0514
B10 | 0.262 | 0.41
B11 | 0.039 | 4.6
B12 | 1.7 | 0.0634
B13 | 2.57 | 0.0504

biological target: human GLP-1 receptor (GLP-1R) (human, UniProt P43220 24-463); assay: cell-based or functional assay

Binder | hGLP1R cAMP EC50 ratio | hGLP1R cAMP Rel EC50 [nM]
B1 | 0.484 | 0.0916
B2 | 0.79 | 0.0575
B3 | 0.951 | 0.0604
B4 | 0.859 | 0.0626
B5 | 1.24 | 0.0461
B6 | 1.23 | 0.0393
B7 | 0.851 | 0.0608
B8 | 0.0121 | 4.8
B9 | 1.22 | 0.0427
B10 | 0.0278 | 1.6
B11 | 0.176 | 0.33
B12 | 0.501 | 0.0904
B13 | 0.484 | 0.0915
